Measurements as given in article doi:10.1101/2025.05.23.654710.

Legend:
Test in all cases: EMSA
Msn2 IDR = biological target: T1, Msn2 IDR (Saccharomyces cerevisiae, UniProt P33748)
T1 sequence: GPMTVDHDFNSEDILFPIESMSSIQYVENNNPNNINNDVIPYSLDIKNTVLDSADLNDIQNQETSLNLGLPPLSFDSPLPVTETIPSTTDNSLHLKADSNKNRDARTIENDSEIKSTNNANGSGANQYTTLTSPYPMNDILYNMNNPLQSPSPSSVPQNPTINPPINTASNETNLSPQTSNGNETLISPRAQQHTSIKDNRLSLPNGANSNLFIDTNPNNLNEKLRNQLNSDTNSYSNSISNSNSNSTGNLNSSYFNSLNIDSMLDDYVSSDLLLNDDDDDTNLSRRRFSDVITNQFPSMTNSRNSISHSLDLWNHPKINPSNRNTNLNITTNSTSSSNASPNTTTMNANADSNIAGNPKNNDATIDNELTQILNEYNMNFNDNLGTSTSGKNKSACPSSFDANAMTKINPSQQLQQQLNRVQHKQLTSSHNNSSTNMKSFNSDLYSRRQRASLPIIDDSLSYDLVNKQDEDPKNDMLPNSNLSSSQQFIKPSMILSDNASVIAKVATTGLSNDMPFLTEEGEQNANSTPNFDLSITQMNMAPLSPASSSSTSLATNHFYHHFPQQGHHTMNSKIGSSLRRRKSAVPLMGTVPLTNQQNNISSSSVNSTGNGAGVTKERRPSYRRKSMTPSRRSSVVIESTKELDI

Msn2 WT = biological target: T2, Msn2 WT (Saccharomyces cerevisiae, UniProt P33748)
T2 sequence: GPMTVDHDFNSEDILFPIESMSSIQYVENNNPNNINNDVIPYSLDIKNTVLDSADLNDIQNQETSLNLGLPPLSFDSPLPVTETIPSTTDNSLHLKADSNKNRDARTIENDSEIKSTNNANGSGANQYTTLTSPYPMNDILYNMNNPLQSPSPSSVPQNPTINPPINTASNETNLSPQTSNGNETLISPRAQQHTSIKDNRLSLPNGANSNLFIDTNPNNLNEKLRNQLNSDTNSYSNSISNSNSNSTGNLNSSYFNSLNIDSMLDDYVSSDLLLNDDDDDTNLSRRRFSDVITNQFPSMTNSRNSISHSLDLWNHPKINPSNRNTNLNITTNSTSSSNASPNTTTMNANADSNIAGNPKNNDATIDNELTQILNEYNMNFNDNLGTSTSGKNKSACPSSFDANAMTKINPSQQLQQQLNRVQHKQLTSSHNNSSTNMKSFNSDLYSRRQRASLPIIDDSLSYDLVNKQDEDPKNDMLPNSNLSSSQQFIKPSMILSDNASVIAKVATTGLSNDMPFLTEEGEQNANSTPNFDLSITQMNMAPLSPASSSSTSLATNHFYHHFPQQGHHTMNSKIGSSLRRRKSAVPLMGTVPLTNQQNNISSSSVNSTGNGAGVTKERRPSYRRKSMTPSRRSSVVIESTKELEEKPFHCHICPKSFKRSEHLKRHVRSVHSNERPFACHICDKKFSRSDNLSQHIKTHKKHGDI

Msn2 DBD = biological target: T3, Msn2 DBD (Saccharomyces cerevisiae, UniProt P33748)
T3 sequence: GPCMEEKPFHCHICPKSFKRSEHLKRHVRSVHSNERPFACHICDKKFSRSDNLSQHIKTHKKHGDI

Measured: binding result

B1: 51 bp DNA with motif (dsDNA)
DNA 1: CGAAATTATATGGATGAGTAGGTGGGGAAGGAAGTATGTGTAGGTGGCAGG
DNA 2: CCTGCCACCTACACATACTTCCTTCCCCACCTACTCATCCATATAATTTCG
binds: all assays above
